Reference: patent publication US20170157165

Target: FGF2 (Homo sapiens) (UniProt P09038)
Assay: cell_activity
Details: 5' C6; 3' idT; negative control; HUVEC proliferation, FGF2 0.58 nM

FGF2 (Homo sapiens), sequence (P09038 135-288): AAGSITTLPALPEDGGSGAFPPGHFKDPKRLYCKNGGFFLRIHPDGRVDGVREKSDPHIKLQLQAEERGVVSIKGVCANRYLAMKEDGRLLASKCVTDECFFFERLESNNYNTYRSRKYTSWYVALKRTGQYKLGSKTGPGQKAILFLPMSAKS

## negative control RNA (Macugen sequence without PEG)
  IC50: > 0.4 µM
